Variants at the floor of the assay were thinned out.
B1: TPR 5TU (parent)
chain: GGAUCUUCUCGAUCUAACAAAAAAGACAAAUCUGCCACAAAGCUUGAGAGCAUCUUCGGAUGCAGAGGCGGCAGCCUUCGGUGGCGCGAUAGCGCCAACGUUCUCAACUAUGACACGCAAAACGCGUGCUCCGUUGAAUGGAGUUUAUCAUG

Variants of: B1
Assay: polymerase ribozyme fitness, log enrichment relative to wild type (log ratio); higher = more active; in vitro selection for triplet polymerase activity
Summary of the method: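 For each subunit of a heterodimeric triplet polymerase ribozyme, a mutant library was built by PCR and transcribed, then taken through a single in vitro selection round in triplicate. Selection involved annealing to a biotinylated primer, the partner subunit and triplets, incubation frozen at −7 °C, gel excision of extended constructs, capture on streptavidin beads and RT-PCR. Genotypes were retained after Illumina sequencing of inputs and outputs only with ≥10 input reads and ≥1 read in each output. Fitness is defined as the logarithm of a genotype's enrichment relative to wild-type enrichment, using inverse-variance-weighted averages across replicates, with the logarithm taken to base 2.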

Variant	polymerase ribozyme fitness (log ratio)
G80A C85U G136A G143C	-1.57
C76U C99A	-1.37
U78A C93G C108U	≤ -4.2
C76U G84C	-1.35
C76U G84U	-0.883
G80A A91C G94A	-4.16
G81C G140C	-3.7
G80C C95U C99A G133U	≤ -4.2
C79A A106G U146G	≤ -4.2
C76U A119G G126U U139G	-0.649
C79U C103G	≤ -4.2
C76U C85U	-2.03
G81A C87U A97U	-1.53
C79U G84A	-3.04
U78G G141A	≤ -4.2
G80C C87U U102G G124C U130A	≤ -4.2
C76U G84U G143A	-2.57
C79A U82G C93A G141U G152U	≤ -4.2
C76G G92U A121G G143U	≤ -4.2
G80C C131G	-4.04
U78G A89U A106G C118U	≤ -4.2
U77A C87U A98C C103A C125U U135G	≤ -4.2
G81A C87U A91U G112U G143A	≤ -4.2
C79U U90A A106U	≤ -4.2

Variant	polymerase ribozyme fitness (log ratio)
U78C C95U C108U C116U	≤ -4.2
G81A C93G	-3.86
G81C C95A U134A U144C	-2.86
G81A U127C	-2.04
G81A U127G	-3.31
U77C G84U A106C	≤ -4.2
C79A U90G C95G C116A A119C G141U	≤ -4.2
U82A C95A A97C C103U U134A	-3.46
C76G G81A	≤ -4.2
U78C A142U	-1.72
U78C A142G	-1.33
C76U A97G G100A A142G	≤ -4.2
U77G G84U	≤ -4.2
G81A C93U C95U	-1.11
U77G A107U U144C U145C	≤ -4.2
U78A C93A G124U	≤ -4.2
U78C U146C	0.315
U78A A91U	≤ -4.2
C76U C95A C96U U151G	≤ -4.2
G81A A89C A119U C132G U135C G143C U148A	≤ -4.2
G81C G94U A98U U146G	-0.695
G80A G84A A120G	-1.33
U77G C93A G143A U146C	≤ -4.2
U78G U90G C131A	≤ -4.2

Variant	polymerase ribozyme fitness (log ratio)
C79G G81U G133A	≤ -4.2
U78A G80A U82A A142U	≤ -4.2
C76G G84U C116A	≤ -4.2
C76G C96G C99G G140U U148G	≤ -4.2
G81A C95A A98U	-0.289
C76U G143A	-1.28
C76U G88U A91C C93U G140C	≤ -4.2
U78G U127C	≤ -4.2
G81A G140C	-2.67
C76U A115C	-0.614
G81C G126C U145C	0.873
G81A A115U A142U	-2.42
C76U A122G	-0.0921
G80A C87U A89C C99A A120U	-2
G81C G86A	-1.83
C76U U82G C87U	0.25
G80U U109C G143C	-4.04
U77C C85A C108A U111C A113U	≤ -4.2
U78G A89U C93G A106G C118G U145C A150U U151G	≤ -4.2
U77G G86U U102C G140C	≤ -4.2
C76G C87G U102G C108A	≤ -4.2
C76U G117A	0.649
C79A C103G	≤ -4.2
G80U C85A	-2.27

Variant	polymerase ribozyme fitness (log ratio)
G81A C87U G100U A115U C116U	-4.04
C79U A121U	-1.2
G80A C85A A142C	-2.14
G80U C103G G152A	≤ -4.2
G80A U146G U148C	-3.91
U82A A106G C123G U148G	-4.03
G81U G141A	0.321
G80A C93U U102A	-3.01
C76G G84A A122G	≤ -4.2
G81A A91G C99G A120C	-4
U77G G86U C93G C96A C118G U145G	≤ -4.2
C79A G80A G81A G88U	≤ -4.2
U82A C103G A113U A137C U148A	≤ -4.2
U78C G92C C105U A106G C114U U148G	≤ -4.2
C79A C116A	-3.87
C76U C93G C132U	-3.96
C76U C85A G141C U148C	-3.74
G81A C96U C114G A115U	-3.6
C79G U101G U109G U135C U148A	≤ -4.2
G80A G81A A120C	-0.393
C79U C85U A115C	≤ -4.2
C76G G84U U145C	≤ -4.2
U77A C85U A91G G133C A142G	≤ -4.2
C76U A150C	-3.79

Variant	polymerase ribozyme fitness (log ratio)
C76U A150U	0.843
C79U G140C	-4.1
C76U G84A C85A C129U U134C	≤ -4.2
C76A U145C	-0.484
G81C A89U C96G	-0.784
U77C A91U U146A	≤ -4.2
C79U G84A C108A C114A C118A U139G	≤ -4.2
C79U C93U C95U	-4.08
U82A C93G	-3.41
C76G A91C	≤ -4.2
C79U G92U	-1.44
U78G C87G	≤ -4.2
C76U A89G	-1.03
C79U C87U A113G	-4.11
G81A C85U C132A	-2.23
C76U C95U	0.961
C76U G94A	1.11
G80A A89G G117U	-1.48
C79G C87U G100U	-2.91
G80A C114U A137C	-3.92
C79G G128U	≤ -4.2
C76U G81A	0.573
G80C C85U A97C C99A G141U	-3.93
C76U G88U	≤ -4.2

Variant	polymerase ribozyme fitness (log ratio)
C76U U135C	-2.53
C76U U135G	-2.79
C76U G84U A98U	-1.66
G81C C85U	0.0549
C79A U101G	≤ -4.2
G81U G84A	-1.28
U78C C85U C103A G141U G152U	≤ -4.2
U77A G81A A113U U134G	≤ -4.2
C76G G86A	≤ -4.2
G80C G92U C96U U135G A150G	≤ -4.2
G81C C125A G140C	-3.98
G81A A97U	-0.297
C76U C93A	-2.34
C79G A98G G100C G124A	-2.18
C76U C105G	-3.71
U78A	-3.62
U78C	-0.318
G80C G86U G94C A137C	≤ -4.2
U77A C93A A113C	≤ -4.2
G81C C85U A107C G126A	-4.16
G81U C93U G94U A98G C131A A137U	≤ -4.2
C76G G88C	≤ -4.2
G81C G117A A119C	0.184
G80C C87U	≤ -4.2

Variant	polymerase ribozyme fitness (log ratio)
G80U C105U G136U	-1.49
G81A A89C	-0.165
U78C C93U C99A A115C	-4.13
C76U U82G G83A C105A U134C U146A U148G	≤ -4.2
G80C C93G A115C U144C	≤ -4.2
C79G C95U	-3.03
G81A U148C	-1.48
U82A A106U C116U G126U U145C	-2.88
G81A	-0.305
G81U	-0.702
G81C	-0.471
G81U C95U	-1.63
C79U C108G U109G U139G U145C	≤ -4.2
U77G G141A	-4.18
U77C	-2.04
U77A	≤ -4.2
G80A C132U	-0.678
U77C C87G A142G	≤ -4.2
C76U G84A C118U U134A G140C U151A	≤ -4.2
G80C G84C G133A G141C	≤ -4.2
G80U U148C	-3.38
U77G A89G C95G C105G C108G	≤ -4.2
U77G C99A G140A	≤ -4.2
